B1: biotin-labeled ALG-2 [modified: biotin-labeled; biotin-labeled] [human] / GST-SGG-linker-8xHis fused with the eight-residue Sec31A peptide (NPPPPGFI), wild type [human] (parent complex)
chain 1: MAAYSYRPGPGAGPGPAAGAALPDQSFLWNVFQRVDKDRSGVISDTELQQALSNGTWTPFNPVTVRSIISMFDRENKAGVNFSEFTGVWKYITDWQNVFRTYDRDNSGMIDKNELKQALSGFGYRLSDQFHDILIRKFDRQGRGQIAFDDFIQGCIVLQRLTDIFRRYDTDQDGWIQVSYEQYLSMVFSIV
chain 2: NPPPPGFI

Variants of: B1
Test: far-Western blot (FW), signal intensity measured with ImageJ; n = 4; read off a plot

Compared with chain 2 N1P, chain 2 P4A is lower in percent of parent: ~100 % of WT for the first, ~42 % of WT for the second.

Going from chain 2 P5L to chain 2 I8G, the percent of parent falls from ~55 % of WT to ~9 % of WT.
